From PMC8685681 come the findings set out here.

Assay [1] concerns the target M1 muscarinic acetylcholine receptor, wild type (M1-WT), transfected in HEK293T cells (UniProt P12657).
Assay [2] has as its target phosphorylation-deficient M1 muscarinic acetylcholine receptor (M1-PD), transfected in HEK293T cells (UniProt P12657).

Regarding “Gq (Gαq, BRET biosensor of Gq activation in HEK cells) (from UniProt P50148 1-359) (natural protein)”, the Emax of ACh-stimulated Gq activation (BRET biosensor, decrease in BRET, HEK cells) in assay [1] was determined as 100; in assay [2], 108.
As for “β-arrestin-2 (bystander BRET sensor in HEK293T cells) (from UniProt P32121 1-409) (natural protein)”, the Emax of ACh-stimulated β-arrestin-2 recruitment (bystander BRET: translocation of β-arrestin-2 to the cell membrane, HEK293T cells) is 104 in assay [1] and 40.7 in assay [2].
